Experimental data reported in patent US12473560 (FLAGSHIP PIONEERING INNOVATIONS VI, dated 2025).
Where a chain is given by its changes, count along the chain named.

B1: AB-1 full-length IgG1 (antibody, V domains shown)
VH: EVQLEESGTVLARPGASVKMSCKASGYTFTTYWMHWIKQRPGQGLEWIGAIYPGNSDTQYNQKFKDKAKLTAVKSTSSAYMELSSLTNEDSAVYFCTREGIPQLLRTLDYWGQGTSVTVSS
VL: DILMTQSPSSLSASLGERVSLTCRASQEISGYLSWLQEKPDGTIKRLIYAASTLDSGVPKRFSGSRSGSDYSLTISSLESEDFADYYCLQYLSYPWTFGGGTKLEIK
B2: AB-2 full-length IgG1 (antibody, V domains shown)
VH: B1 VH with S56G, Q59N
VL: B1 VL
B3: AB-3 full-length IgG1 (antibody, V domains shown)
VH: B1 VH with S56G, Q59N, L104K, Y110V
VL: B1 VL
B4: AB-9 full-length IgG1 (antibody, V domains shown)
VH: B1 VH with T31S, Q59N, K74T
VL: B1 VL
B5: AB-5 full-length IgG1 (antibody, V domains shown)
VH: B1 VH with T31S, S56G, Q59N, R106N, Y110V
VL: B1 VL with L89Q
B6: AB-7 full-length IgG1 (antibody, V domains shown)
VH: B1 VH with T31S, Q59N, T107S
VL: B1 VL
B7: AB-6 full-length IgG1 (antibody, V domains shown)
VH: B1 VH with T31S, Q59N, L105T
VL: B1 VL
B8: AB-4 full-length IgG1 (antibody, V domains shown)
VH: B1 VH with S56G, Q59N, L108F
VL: B1 VL with S30G
B9: AB-8 full-length IgG1 (antibody, V domains shown)
VH: B1 VH with Q59I
VL: B1 VL
B10: AB-11 full-length IgG1 (humanized) (antibody, V domains shown)
VH: EVQLVQSGAEVKKSGESLKISCKASGYTFTTYWMHWVRQMPGKGLEWMGAIYPGNSDTQYSPSFQGQVTLSADKSISTAYLQWSSLKASDTAMYFCTREGIPQLLRTLDYWGQGTLVTVSS
VL: EIVLTQSPGTLSLSPGERATLSCRASQEISGYLAWLQQKPGQAPRRLIYAASSLATGIPDRFSGSGSGTDFTLTISRLEPEDFAVYYCLQYLSYPWTFGQGTKVEIK
B11: AB-10 full-length IgG1 (humanized) (antibody, V domains shown)
VH: QVQLVQSGAEVKKPGASVKVSCKASGYTFTSYWMHWVRQAPGQGLEWMGAIYPGNGDTNYAQKFQGRVTMTADTSISTAYMELSRLRSDDTAVYYCTREGIPQLLNTLDVWGQGTLVTVSS
VL: DIQMTQSPSSLSASVGDRVTITCRASQEISGYLNWYQQKPGKAPKRLIYAASSLQSGVPSRFSGSGSGTDFTLTISSLQPEDFATYYCQQYLSYPWTFGQGTKVEIK
B12: AB-12 full-length IgG1 (humanized) (antibody, V domains shown)
VH: B10 VH with S14P, Q59R, A72V, S77T, S84N
VL: B11 VL with E28G, N34S, Y36L, G41E, S53T, V104L

Molecular target: T1, SARS-CoV-2 Spike protein receptor-binding domain (RBD) (SARS-CoV-2, UniProt P0DTC2 319-527)
Test: not given

Row | Binder | Kd
1 | B1 | 34.2 nM
2 | B2 | 127 nM
3 | B3 | 177 nM
4 | B4 | 98.8 nM
5 | B5 | 148 nM
6 | B6 | 386 nM
7 | B7 | 103 nM
8 | B8 | 151 nM
9 | B9 | 104 nM

Molecular target: SARS-CoV-2 Spike as carried on rVSV-SARS-CoV-2 pseudovirus and authentic WT virus (SARS-CoV-2, UniProt P0DTC2 14-1273)
Test: cell-based or functional assay

Row | Binder | Neutralization (ng/mL), Authentic Virus IC50 | Neutralization (ng/mL), Authentic Virus IC80 | Neutralization (ng/mL), Pseudovirus IC50 | Neutralization (ng/mL), Pseudovirus IC80 | Neutralization (ng/mL), Pseudovirus IC90
10 | B1 | 78 ng/mL | 543 ng/mL | 0.0782 ng/mL | 2.6 ng/mL | 9.56 ng/mL
11 | B2 | 379 ng/mL | 3030 ng/mL | 9.65 ng/mL | 35.2 ng/mL | 760 ng/mL
12 | B3 | 3550 ng/mL | 11100 ng/mL | 17.6 ng/mL | 110 ng/mL | 502 ng/mL
13 | B4 | 100 ng/mL | 627 ng/mL | 0.824 ng/mL | 4.14 ng/mL | 9.95 ng/mL
14 | B5 | 260 ng/mL | 2460 ng/mL | 8.25 ng/mL | 35.2 ng/mL | 71.1 ng/mL
15 | B6 |  |  | 24.6 ng/mL |  | 
16 | B7 | 25000 ng/mL | 25000 ng/mL | 6.15 ng/mL | 27.2 ng/mL | 58.4 ng/mL
17 | B9 | 222 ng/mL | 1600 ng/mL | 0.792 ng/mL | 3.34 ng/mL | 7.6 ng/mL

Molecular target: T1, SARS-CoV-2 Spike protein …
Test: BLI (Octet), IgG captured on anti-human Fc sensors, RBD in solution

Row | Binder | Kd
18 | B1 | 39 nM

Molecular target: T1, SARS-CoV-2 Spike protein …
Test: BLI (Octet), IgG1 captured on anti-human Fc sensors, RBD in solution; for Req: test concentration or dose not given here; for Response: test concentration or dose not given here; for kobs: test concentration or dose not given here

Row | Binder | Kd | Req | Response | kobs | koff | kon
19 | B1 | 15.9 nM | 0.388 nm shift | 0.364 nm shift | 0.00924 s⁻¹ | 0.00127 s⁻¹ | 79700 M⁻¹ s⁻¹
20 | B5 | 41.3 nM | 0.318 nm shift | 0.315 nm shift | 0.0117 s⁻¹ | 0.00341 s⁻¹ | 82500 M⁻¹ s⁻¹
21 | B10 | 32.7 nM | 0.326 nm shift | 0.319 nm shift | 0.0104 s⁻¹ | 0.00255 s⁻¹ | 78000 M⁻¹ s⁻¹
22 | B11 | 25.4 nM | 0.102 nm shift | 0.114 nm shift | 0.0151 s⁻¹ | 0.00306 s⁻¹ | 121000 M⁻¹ s⁻¹
23 | B12 | 32.4 nM | 0.135 nm shift | 0.145 nm shift | 0.0149 s⁻¹ | 0.00366 s⁻¹ | 113000 M⁻¹ s⁻¹

Molecular target: T1, SARS-CoV-2 Spike protein …
Test: BLI (Octet Red96e), IgG captured on anti-human Fc sensors, RBD in solution

Row | Binder | Kd | koff | kon
24 | B1 | 39 nM | 0.0024 s⁻¹ | 62000 M⁻¹ s⁻¹
